Experimental findings from patent US20150125470A1 are described below.

In assay [1] the target is human Siglec-15 V-set domain (human) (UniProt Q6ZMC9). As to the kind of experiment: SPR (Biacore T200), antibody captured via anti-human IgG, antigen as analyte, same manner as 10-1. In general terms: In SPR one partner is held on a chip, and binding of the other changes the refractive index at the surface.
Assay [2] has the same target. As to the kind of experiment: SPR (Biacore T200), ratio of KD values, reference rat #32A1.
The target is the same in assay [3]. The experiment in a line: SPR (Biacore T200), antibody captured via immobilized anti-mouse IgG antibody, antigen as analyte, 1:1 model.
The target is the same in assay [4]. As to the kind of experiment: SPR (Biacore T200), antibody captured via immobilized anti-human IgG antibody, antigen as analyte, 1:1 model.

Numbering of substitutions follows the chain as printed.

Chain of UniProt Q6ZMC9 (Q6ZMC9 39-165 limits assumed, form in doubt): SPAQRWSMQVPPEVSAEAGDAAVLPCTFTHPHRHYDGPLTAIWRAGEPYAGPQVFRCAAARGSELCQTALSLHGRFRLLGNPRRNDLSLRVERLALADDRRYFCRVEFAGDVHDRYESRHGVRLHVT

B1: h#24A3-H2/L3 (antibody, human IgG2, kappa, V domains shown)
VH: QVQLVQSGAEVKKPGASVKVSCKASGYTFPRYDVSWVRQAPGQGLEWMGVIHPGSGGTGYNEKFKARVTITADTSTSTAYMELSSLRSEDTAVYYCARRGLNSGYWFFDFWGQGTLVTVSS
VL: DIVMTQSPDSLAVSLGERATINCKASQNVGSNVDWYQQKPGQSPKLLIYESTNRYTGVPDRFTGSGSGTDFTFTISSLQAEDVAVYYCMQSNFFPFTFGQGTKVEIKR
As for B1, the dissociation constant Kd (commonly the constant that tells how readily two partners part at equilibrium) in assay [1] was found to be 0.027 nM.

B2: h#24A3-H2d/L3b (antibody, human IgG2, kappa, V domains shown)
VH: B1 VH with V68A, S103K
VL: B1 VL with F73L
The molecule B2 registered a dissociation constant Kd in assay [1] of 0.0075 nM. Compared with the last molecule, the Kd is about 3.6-fold lower.

B3: h#24A3-H2d/L2b (antibody, human IgG2, kappa, V domains shown)
VH: B1 VH with V68A, S103K
VL: B1 VL with T63S, F73L
As for B3, in assay [1], the equilibrium dissociation constant (Kd) is 0.01 nM.

B4: h#24A3-H2c/L3b (antibody, human IgG2, kappa, V domains shown)
VH: B1 VH with M48I, S103K
VL: B1 VL with F73L
In the case of B4, in assay [1], the Kd worked out at 0.015 nM.

B5: h#24A3-H2b/L1 (antibody, human IgG2, kappa, V domains shown)
VH: B1 VH with S103K
VL: B1 VL with S43P, T63S, F73L
As to B5, in assay [1], the Kd was 0.0098 nM.

B6: h#24A3-H2d/L1 (antibody, human IgG2, kappa, V domains shown)
VH: B1 VH with V68A, S103K
VL: B1 VL with S43P, T63S, F73L
In assay [1], B6 displayed a Kd of 0.0045 nM.

B7: h#24A3-H2b/L3b (antibody, human IgG2, kappa, V domains shown)
VH: B1 VH with S103K
VL: B1 VL with F73L
B7 showed a Kd in assay [1] of 0.0077 nM.

B8: h#24A3-H2e/L2b (antibody, human IgG2, kappa, V domains shown)
VH: B1 VH with A72V, S103K
VL: B1 VL with T63S, F73L
In turn, B8 yielded an equilibrium dissociation constant (Kd) in assay [1] of 0.018 nM.

B9: h#24A3-H2e/L1 (antibody, human IgG2, kappa, V domains shown)
VH: B1 VH with A72V, S103K
VL: B1 VL with S43P, T63S, F73L
Molecule B9 gave a Kd in assay [1] of 0.0069 nM.

B10: h#24A3-H2b/L2b (antibody, human IgG2, kappa, V domains shown)
VH: B1 VH with S103K
VL: B1 VL with T63S, F73L
B10 came in with a Kd in assay [1] of 0.0085 nM.

B11: h#24A3-H2/L1 (antibody, human IgG2, kappa, V domains shown)
VH: B1 VH
VL: B1 VL with S43P, T63S, F73L
In the case of B11, in assay [1], the Kd was 0.031 nM.

B12: h#24A3-H2e/L3b (antibody, human IgG2, kappa, V domains shown)
VH: B1 VH with A72V, S103K
VL: B1 VL with F73L
Take B12: the dissociation constant (Kd) in assay [1] came to 0.016 nM.

B13: h#24A3-H2/L2 (antibody, human IgG2, kappa, V domains shown)
VH: B1 VH
VL: B1 VL with T63S
In turn, B13 came in with an equilibrium dissociation constant (Kd) in assay [1] of 0.028 nM.

B14: h#24A3-H2c/L1 (antibody, human IgG2, kappa, V domains shown)
VH: B1 VH with M48I, S103K
VL: B1 VL with S43P, T63S, F73L
Take B14: in assay [1], the Kd was determined as 0.01 nM. This Kd lies about 2.8-fold lower than the previous one.

B15: h#24A3-H2c/L2b (antibody, human IgG2, kappa, V domains shown)
VH: B1 VH with M48I, S103K
VL: B1 VL with T63S, F73L
Turning to B15, the dissociation constant (Kd) in assay [1] was found to be 0.013 nM.

B16: rat anti-human Siglec-15 monoclonal antibody #24A3 (antibody, rat IgG2a, V domains shown)
VH: QVQLQQSGAELTKPGSSVKISCKTSGYTFPRYDVSWIKQRPGQALEWIGVIHPGSGGTGYNEKFKAKATLAVDTSSSTAFMQLSSLTPEDTAVYYCARRGLNSGYWFFDFWGPGTLVTVSS
VL: DIVMTQSPTSMSISVGDRVTMNCKASQNVGSNVDWYQQKTGQSPKLLIYESTNRYTGVPDRFTGSGSGTDFTFTISNVQAEDLAVYYCMQSNFFPFTFGSGIKLEIKR
For the molecule B16, the fold affinity against #32A1 in assay [2] was determined as 2 fold. In assay [3], the equilibrium dissociation constant (Kd) turned out to be 0.07 nM.

B17: human chimeric antibody of the rat anti-human Siglec-15 monoclonal antibody #24A3 (antibody, human IgG2, V domains shown)
VH: B16 VH
VL: B16 VL
B17 displayed a Kd in assay [4] of 0.017 nM. This counts as picomolar.
